Measured values published in patent US20250188179A1 (ADAGENE PTE, published 2025).

T1: His-tagged recombinant human FcγRIIb (human, UniProt P31994 46-217, limits assumed)
T1 construct: His-tagged; also called hFcγRIIb
T1 sequence (looked up): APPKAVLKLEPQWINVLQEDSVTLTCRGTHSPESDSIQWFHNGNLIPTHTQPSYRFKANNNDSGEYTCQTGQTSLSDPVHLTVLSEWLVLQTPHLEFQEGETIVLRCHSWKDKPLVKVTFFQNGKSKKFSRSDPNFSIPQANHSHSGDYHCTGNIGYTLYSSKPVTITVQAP

T2: His-tagged recombinant human FcγRIIa (human, UniProt P12318 36-218, limits assumed)
T2 construct: His-tagged; also called hFcγRIIa
T2 sequence (looked up): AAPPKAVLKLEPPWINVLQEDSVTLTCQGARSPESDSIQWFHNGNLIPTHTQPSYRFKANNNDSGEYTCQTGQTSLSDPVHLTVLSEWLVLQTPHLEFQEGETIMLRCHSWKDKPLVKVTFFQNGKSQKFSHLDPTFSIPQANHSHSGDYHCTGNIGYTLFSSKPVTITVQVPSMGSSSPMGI

B1: TY25366 (antibody, human IgG4 S228P, kappa)
heavy: EVQLVESGGGLVQPGGSLRLSCAASGFSLSTGGVGVGWIRQAPGKGLEWLALIDWADDKYYSPSLKSRLTISRDNSKNTLYLQLNSLRAEDTAVYYCARGGSDTVIGDWFAYWGQGTLVTVSSASTKGPSVFPLAPCSRSTSESTAALGCLVKDYFPEPVTVSWNSGALTSGVHTFPAVLQSSGLYSLSSVVTVPSSSLGTKTYTCNVDHKPSNTKVDKRVESKYGPPCPPCPAPEFLGGPSVFLFPPKPKDTLMISRTPEVTCVVVDVEQEDPEVQFNWYVDGVEVHNAKTKPREEQFNSTYRVVSVLTVLHQDWLNGKEYKCKVSNKGFPSSIEKTISKAKGQPREPQVYTLPPSQEEMTKNQVSLTCLVKGFYPSDIAVEWESNGQPENNYKTTPPVLDSDGSFFLYSRLTVDKSRWQEGNVFSCSVMHEALHNHYTQKSLSLSLGK
light: not shown
notes: also called untreated TY25366
B2: TY24122 (antibody, human IgG4 S228P, kappa)
heavy: B1 heavy
light: not shown

What was measured:
[1] = biological target: T3, hCD137 (antigen of the ELISA and FACS assays of Example 2) (human, UniProt Q07011 24-186, limits assumed); test: ELISA on hCD137, absorbance at 450 nm; masked antibody without MMP9 treatment
T3 construct: also called human CD137

[2] = biological target: T4, full-length human CD137 with C-terminal 3xMyc tag displayed on yeast cells (human, UniProt Q07011 24-255); test: FACS titration on yeast displaying full-length hCD137-3xMyc, no protease; data batch 4
T4 construct: whole, on cells; not used; also called hCD137; not shown: C-terminal 3xMyc tag

[3] = biological target: T4, full-length human CD137 with C-terminal …; test: KD divided by KD of parental antibody (TY21242 or TY23310); FACS on yeast hCD137; data batch 4
[4] = biological target: T3, hCD137 (antigen of the ELISA and FACS …); test: ELISA EC50 relative to parental antibody TY24122
[5] = biological target: T3, hCD137 (antigen of the ELISA and FACS …); test: FACS-based assay on hCD137
[6] = biological target: T3, hCD137 (antigen of the ELISA and FACS …); test: ELISA on hCD137
[7] = biological target: T1, His-tagged recombinant human FcγRIIb; test: BLI (Fortebio), His-tagged FcγR captured on anti-Penta-His sensor, antibody in solution, steady state analysis
[8] = biological target: T2, His-tagged recombinant human FcγRIIa; test: as above
[9] = biological target: T3, hCD137 (antigen of the ELISA and FACS …); test: FACS KD relative to parental antibody TY24122

Binder	EC50 (read off the curve) [1] [nM]	Kd [2] [nM]	Masking efficiency [3] [fold]	Masking efficiency [4] [fold]	Kd [5] [nM]	EC50 [6] [nM]	Kd [7] [nM]	Kd [8] [nM]	Masking efficiency [9] [fold]
B1	~10	64.6	324	–	–	–	–	–	–
B2	–	–	–	1	0.141	0.31	5.06	5.85	1
